# According to patent publication US20140044713A1 (KONINKLIJKE NEDERLANDSE AKADEMIE VAN WETENSCHAPPEN, published 2014):
# T1: Lgr5 ΔN (deletion of the extreme N-terminus of Lgr5, amino acids 28-50) (UniProt O75473 22-907)
# T1 construct: whole, on cells; Deletion construct
# T1 sequence (looked up): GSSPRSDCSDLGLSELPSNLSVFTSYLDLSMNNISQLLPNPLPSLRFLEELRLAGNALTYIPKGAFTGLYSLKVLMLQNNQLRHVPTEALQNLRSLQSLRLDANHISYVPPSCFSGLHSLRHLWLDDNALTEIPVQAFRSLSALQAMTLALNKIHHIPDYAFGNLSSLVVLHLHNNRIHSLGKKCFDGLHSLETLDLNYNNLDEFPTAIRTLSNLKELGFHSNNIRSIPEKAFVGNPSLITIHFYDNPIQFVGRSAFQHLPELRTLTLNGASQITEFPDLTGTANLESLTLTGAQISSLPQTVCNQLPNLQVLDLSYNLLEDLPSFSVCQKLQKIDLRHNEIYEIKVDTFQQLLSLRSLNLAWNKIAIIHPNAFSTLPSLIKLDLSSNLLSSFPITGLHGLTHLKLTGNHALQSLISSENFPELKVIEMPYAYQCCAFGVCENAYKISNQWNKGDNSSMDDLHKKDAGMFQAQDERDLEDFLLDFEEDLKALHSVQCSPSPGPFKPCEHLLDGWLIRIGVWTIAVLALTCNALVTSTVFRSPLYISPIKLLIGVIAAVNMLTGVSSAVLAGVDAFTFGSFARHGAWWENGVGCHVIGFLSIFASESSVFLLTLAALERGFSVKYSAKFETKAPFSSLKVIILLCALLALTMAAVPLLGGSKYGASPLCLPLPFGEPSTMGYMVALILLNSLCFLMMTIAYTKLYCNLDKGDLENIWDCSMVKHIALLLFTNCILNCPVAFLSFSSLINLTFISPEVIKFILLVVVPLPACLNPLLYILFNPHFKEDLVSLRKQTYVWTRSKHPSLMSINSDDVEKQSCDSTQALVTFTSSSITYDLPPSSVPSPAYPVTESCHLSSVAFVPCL
# T2: Lgr5 ΔLRR1-17 (deletion of N-terminus and entire LRR region) (UniProt O75473 22-907)
# T2 construct: whole, on cells; Deletion construct
# T2 sequence (looked up): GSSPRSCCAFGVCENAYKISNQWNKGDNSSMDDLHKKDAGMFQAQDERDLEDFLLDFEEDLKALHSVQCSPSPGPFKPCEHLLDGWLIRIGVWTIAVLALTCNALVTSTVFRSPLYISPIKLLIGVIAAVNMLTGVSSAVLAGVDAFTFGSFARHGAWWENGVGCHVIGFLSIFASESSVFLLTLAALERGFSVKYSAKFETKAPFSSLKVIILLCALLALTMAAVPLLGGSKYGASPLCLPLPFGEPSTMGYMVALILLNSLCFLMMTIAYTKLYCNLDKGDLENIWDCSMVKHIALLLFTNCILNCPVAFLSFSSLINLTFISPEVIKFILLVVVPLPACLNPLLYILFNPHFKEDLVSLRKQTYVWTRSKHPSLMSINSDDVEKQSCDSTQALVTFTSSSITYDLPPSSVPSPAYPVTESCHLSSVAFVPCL
# T3: control Lgr7 (Homo sapiens (Human), UniProt Q9HBX9 1-757)
# T3 construct: not shown: the sister constructs are FH-tagged
# T3 sequence: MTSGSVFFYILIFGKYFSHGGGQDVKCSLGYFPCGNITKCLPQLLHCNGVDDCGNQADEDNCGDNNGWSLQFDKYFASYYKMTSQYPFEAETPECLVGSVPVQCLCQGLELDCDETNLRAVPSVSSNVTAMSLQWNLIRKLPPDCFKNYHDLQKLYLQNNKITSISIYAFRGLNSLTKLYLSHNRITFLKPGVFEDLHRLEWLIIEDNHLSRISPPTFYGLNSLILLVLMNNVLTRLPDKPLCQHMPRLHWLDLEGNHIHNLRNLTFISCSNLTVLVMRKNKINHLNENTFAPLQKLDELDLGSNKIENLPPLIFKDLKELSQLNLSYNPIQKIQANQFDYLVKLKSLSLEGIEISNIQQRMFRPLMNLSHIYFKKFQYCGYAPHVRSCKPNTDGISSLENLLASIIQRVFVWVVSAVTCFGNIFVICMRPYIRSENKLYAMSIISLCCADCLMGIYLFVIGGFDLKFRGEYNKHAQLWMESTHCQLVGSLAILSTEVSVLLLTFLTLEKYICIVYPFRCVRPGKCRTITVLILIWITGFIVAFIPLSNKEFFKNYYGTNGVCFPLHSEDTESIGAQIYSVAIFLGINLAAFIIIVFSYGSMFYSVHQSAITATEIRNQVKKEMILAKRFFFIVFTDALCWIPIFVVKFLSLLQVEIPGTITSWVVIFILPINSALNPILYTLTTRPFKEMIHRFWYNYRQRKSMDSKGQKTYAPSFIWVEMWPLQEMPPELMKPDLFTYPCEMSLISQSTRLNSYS
# T4: LGR5-478 (exo domain of LGR5 without the CRL region) (UniProt O75473 22-478)
# T4 construct: domain: exo domain of LGR5 without the CRL region; Purified protein
# T4 sequence (looked up): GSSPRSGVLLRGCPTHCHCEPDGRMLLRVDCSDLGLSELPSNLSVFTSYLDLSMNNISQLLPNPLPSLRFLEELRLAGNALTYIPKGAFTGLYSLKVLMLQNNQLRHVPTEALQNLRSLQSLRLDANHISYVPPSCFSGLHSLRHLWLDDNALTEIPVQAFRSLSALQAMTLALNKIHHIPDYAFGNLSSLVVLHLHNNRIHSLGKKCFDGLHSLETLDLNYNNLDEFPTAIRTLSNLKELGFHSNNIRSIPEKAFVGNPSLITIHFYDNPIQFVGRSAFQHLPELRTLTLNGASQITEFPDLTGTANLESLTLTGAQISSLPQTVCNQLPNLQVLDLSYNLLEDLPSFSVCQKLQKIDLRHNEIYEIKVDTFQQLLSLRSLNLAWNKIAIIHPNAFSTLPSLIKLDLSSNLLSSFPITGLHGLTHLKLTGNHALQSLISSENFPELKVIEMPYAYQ
# Assays:
# [1] = molecular target: T5, tagged Frizzled5 (Frz5) (UniProt Q13467 27-585, limits assumed); assay: Rspo1-Fc pull-down (proteinG beads) from transfected HEK293T cells, FLAG western blot
# T5 construct: whole, on cells; also called double-tagged Frizzled5; Frz5 bait; not shown: FLAG/HA tag
# [2] = molecular target: T1, Lgr5 ΔN (deletion of the extreme …); assay: right panels: incubation with Rspo1 after cell lysis, FLAG immunoprecipitation, anti-hIgG-Fc Western blot
# [3] = molecular target: T2, Lgr5 ΔLRR1-17 (deletion of N-terminus …); assay: as above
# [4] = molecular target: T3, control Lgr7; assay: HEK293T cells transfected with the tagged Lgr, incubated with Rspo1-Fc, protein G immunoprecipitation, anti-FLAG Western blot
# Text: FIG. 7A: Rspondin1 binds to Lgr4, Lgr5 and Lgr6. […] Bottom: Input of tagged proteins.
# [5] = molecular target: T4, LGR5-478 (exo domain of LGR5 without …); assay: gel filtration of purified proteins
# T5 sequence (Q13467 27-585 limits assumed): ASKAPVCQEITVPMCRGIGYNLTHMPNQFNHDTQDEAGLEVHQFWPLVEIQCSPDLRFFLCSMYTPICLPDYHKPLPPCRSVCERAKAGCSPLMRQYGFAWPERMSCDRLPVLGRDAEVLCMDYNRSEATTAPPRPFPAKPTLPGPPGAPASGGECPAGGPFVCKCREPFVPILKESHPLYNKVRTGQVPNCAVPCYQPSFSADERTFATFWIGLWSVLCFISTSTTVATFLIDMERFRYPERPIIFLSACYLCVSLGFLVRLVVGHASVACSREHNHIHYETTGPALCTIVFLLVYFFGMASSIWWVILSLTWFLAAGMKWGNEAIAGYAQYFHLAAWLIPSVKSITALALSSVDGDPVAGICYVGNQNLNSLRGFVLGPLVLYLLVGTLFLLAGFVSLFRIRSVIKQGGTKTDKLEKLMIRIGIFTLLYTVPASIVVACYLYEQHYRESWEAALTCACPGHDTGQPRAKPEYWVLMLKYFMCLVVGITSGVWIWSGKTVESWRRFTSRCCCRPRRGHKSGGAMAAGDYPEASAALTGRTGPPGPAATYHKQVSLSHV
Binder,binding result [1],binding result [2],binding result [3],binding result [4],binding result [5]
"Rspo1-Fc fusion protein (Fc fusion, also called Rspondin1 IgFc fusion protein; not shown: Fc (IgFc) part) SRGIKGKRQRRISAEGSQACAKGCELCSEVNGCLKCSPKLFILLERNDIRQVGVCLPSCPPGYFDARNPDMNKCIKCKIEHCEACFSHNFCTKCKEGLYLHKGRCYPACPEGSSAANGTMECSSPAQCEMSEWSPWGPCSKKQQLCGFRRGSEERTRRVLHAPVGDHAACSDTKETRRCTVRRVPCPEGQKRRKGGQGRRENANRNLARKESKEAGAGSRRRKGQQQQQQQGTVGPLTSAGPA",no binding (tested: ˜1 µg/ml),no binding,no binding,no binding (tested: ~1 µg/ml),
"antibody 1D9 (antibody, V domains shown, Rat monoclonal antibody against human Lgr5; hybridoma LMBP 6961CB; also called Ab1; 1D9 A5) VH: EVKLQESGAALVKPGASVKLSCKASGYTFTDYYIHWVKQSHGKSLEWIGYINPNSGYTNYNEKFKSKATLTVDKSTNTAYMELSRLTSEDSATYYCTRFGSYWYFDFWGQGTTVTVSS VL: MTQSPTSMSISIGDRVTMNCKASQNVDSNVDWYQQKTGQSPKLLIYKASNRYTGVPDRFTGSGSGTDFTFTISNMQAEDLAVYYCMQSNSYPLTFGSGTKLEIKR",,,,,no binding
